This data set in a line: yeast display, Sf9 membrane polyspecificity reagent, FACS + sequencing; frameworks hold sequencing errors. In outline:
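Using colony PCR, genes from sorted yeast display clones were amplified, then sequenced on MiSeq at 2 × 250 and filtered by CDR length. The clones had been stained with 10% biotinylated, detergent-solubilized Sf9 membrane reagent for 1 hour at 4 °C and sorted by FACS into low and high (top ~1%) gates on anti-HA and streptavidin fluorescence. Polyreactivity labels come from the gate of origin.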
Turning to “QVQLVESGGGLVQAGGILRISCAAYGSIFLAYVMGWYRQAPGKERELVAAISYRGGSTYYADSVKGRFTISRDNSKNTVYLQMNSLKPEDTAVYYCAAEHLWGLYNYWGQGTQVTVSS”, the “polyreactivity (PSR sort gate)” value is listed as “low polyreactivity”.

Turning to “QVQLVDSGGGLVQAGGSLRLSCAASGRTFYGNAMGWYRQAPGKARELVAAINRDGGTYYADSVKGRFTISRDNAKNTVYLQMNSLKPEDTAVYYCNAVKRGIRYGYWGQGTQVTVSS”, the “polyreactivity (PSR sort gate)” value is on record as “high polyreactivity”.

In the case of “QVQLVESGGGLVQAGGSLRLSCAASGRILGFYAMGWYRQAPGKERELVARINWSGTRTYYADSVKGRFTISRDNAKNTVYLQMNSLKPEDTAVYYCAARRYYPYDYWGQGTQVTVSS”, the “polyreactivity (PSR sort gate)” value is “high polyreactivity”.

In the case of “QVQLVESGGGLVQAGGSLRLSCAASGSTFFGYDMGWYRQAPGKERELVATINSGGSTYYADSVKGRFTISRDNAKNTVYLQMNSLKPEDTAVYYCAARPSYLYPYDRTGEYDYWGQGTQVTVSS”, the “polyreactivity (PSR sort gate)” value is “high polyreactivity”.

Consider “QVQLVESGGGLVQAGGSLRLSCAASGRIFVYYAMGWYRQAPGKEMELVASISYSGASTYYADSVKGRFTISRDNAKNTVYLQMNSLKPEDTAVYYCNTDGDDFFHVIYDYWGQGTQVTVSS”, for which the “polyreactivity (PSR sort gate)” value is “low polyreactivity”.

As to “QVQLVESGGGLVQAGGSLRLSCAASGSISGWYAMGWYRQAPGKERELVADISSIAGSTYYADCVKGRFTISRDNAKNTDSLQKNSLKPEDTAVYYGAADRGVDYEYDYWGQGTQVTVSS”, the “polyreactivity (PSR sort gate)” value is recorded as “low polyreactivity”.

Take “HVQLVESGGGLVQAGGSLRLSCAASGSIFSENTMGWYRQAPGKEWELVAAISWSGGSTNYADSVKGRFTISRDNAKNTVYLQMNSLKPEDTAVYYCAKDVGSADPTYYYWGQGTQVTVSS”: the “polyreactivity (PSR sort gate)” value is “low polyreactivity”.

Regarding “QVQLVESGGGLDQAGGSLRLSCASSGIIFWWNTMGGYRQAPGQESEMVAAISTGGSTNYADSVKGRFTISRDNAKNTVYLQMNSLKPEDTAVYYCNADWTDGDWADMDYWGQGTQVTVSS”, the “polyreactivity (PSR sort gate)” value is listed as “low polyreactivity”.

“QVQLVESGGGLVQAGGSLSLSCAASGLTFTGNAMGWYRQAPGKERELVAAISWSGGSTYYADSVKGRYTISRDNAKNTVYLQMNSLKPEDTAVYYCGDPDSRYDYWGQGTQVTVSS”: the “polyreactivity (PSR sort gate)” value is reported as “high polyreactivity”.

For “QVQLVESGGGLGQAGGSLRLSCAASGRTFYDNAMGWYRPAPGKERELVAAISSSGSSTYYADSVKGRFTISLDNAKNTVYLQKNSLKPEDTAVYYCSASYTDYYFGFGTDVRYGYWGQGTQVTVSS”, the “polyreactivity (PSR sort gate)” value is on record as “high polyreactivity”.

With “QVQLVESGGGLVQAGGSLRLSCSASGSTSFYNAIGWYRQAPGKERELVAAISWSTGSTYYADSVKGRFTISRDNAKNTVYLQMTSLKPEDTAVYYCAAETGKNVDFVWVLAYPRLDYWGQGTQVTVSS”, the “polyreactivity (PSR sort gate)” value is “low polyreactivity”.

Consider “QVQLVESGGGLVQAGGSLRLSCAASGRIFLTNAMGWYRQAHGKERELVADISRGGSTYADSVKGRFTISRDNAKNTVYLQMNSLKPEDTAVYYCAADEYSPGDSRTRYDYWGQGTQVTVSS”, for which the “polyreactivity (PSR sort gate)” value was “low polyreactivity”.

In the case of “QVQLVESGGGLVQAGGSLRLSCAASGSTLYRNAMGWYRQAPGKERELVAAINYRGTRTYYADSVKGRFTISRDNAKNTVYLQMNSLKPEDTAVYYCAKDYSQFVTYPYDYWGQGTQVTVSS”, the “polyreactivity (PSR sort gate)” value is on record as “low polyreactivity”.

With “QVQLLESGGGLVQAGGSLRLSCAASGSTFKKNAMGWYRQAPGKETELVAAISGIGTRTSYADSLKGRFTISRDNAKNTVYLQMNRLKPEDTAVYYCAARYYGFPSTLKYDYWGQGTQVTVSS”, the “polyreactivity (PSR sort gate)” value is given as “high polyreactivity”.

In the case of “QVQLVESGGGLVQAGGSLRLSCAASGSTSSVNAMGWYRQAPGKEREFVATISFGGGRRYYADSVKGRFTISRDNAKNTVYLQMNSLKPEDTAVYYCAAVGSRWFSQTWRDYWGQGTQVTVSS”, the “polyreactivity (PSR sort gate)” value was “high polyreactivity”.

For “QVQLVESGAGIVQAGGSLRLTCAASGSTFVIYDMGWSRQAPGKERELVAAISYSGGSTYYADSVKGRFTISRDNAKNTVYLQMNSLKPEDTAVYYCAAEVPYYYPGFYSYYDDSDYWGQGTQVTVSS”, the “polyreactivity (PSR sort gate)” value is recorded as “low polyreactivity”.

“QVQLVESGGGLVQAGGSLRLSCAASGFTFSYYAMGWYRQAPGKERELVATITWDGGSTYYADSVKGRFTISRDNAKNTVYLQMNSLKPEDTAVYYCAAQYYRWQTKYDYWGQGTQVTVSS”: the “polyreactivity (PSR sort gate)” value is “high polyreactivity”.

“QVQLVESGGGLVQAGGSLRLSCAASGRIIYNYAMGWYRQAPGKERELVAAISRGGSTNYADSVKGRFTISRDNAKNTVYLQMNSLKPEDTAVYYCAAWTYVWTRGGSPVTVQRYNYWGQGTQVTVSS”: the “polyreactivity (PSR sort gate)” value is reported as “high polyreactivity”.

Consider “QVQLVASGGGLVQAGGSLRLSCAASGRIFDAYAMGWYRQAPGKERELVAAIDFSAGSTYYADSVKGRFTISRDNAQNTVYLQMNSLKPEDTAVYYCATRLGVLYDCWGQGTQVTVSS”, for which the “polyreactivity (PSR sort gate)” value is “low polyreactivity”.

Take “QVQLVESGGGLVQAGGSLRLSCAASGLTFYINDKGWYRQAPWKERELVAAINYSGGSTYYADSVKGRFTISRHNAKNTVYLQMNSLKPEDTAVYYCAADVSRWWGQHRYYSWGQGTQVTVSS”: the “polyreactivity (PSR sort gate)” value is “high polyreactivity”.

Regarding “QVQLVESGGGLVQAGGSLRLSCAASGSTFRWYGMGWYRQAPGKERELVAVITRGGSTYYADSVKGRFTISRDNAKNTVYLQMNSLKPEDTAVYYCARVRGPNNAFYLGSTYGYWGQGTQVTVSS”, the “polyreactivity (PSR sort gate)” value is recorded as “high polyreactivity”.

For “QVQLVESGVGLVQAGGSLRLSCAASGRTISYNARGWYRQAPGKEREFVADINYSAGSTYYADSVKGRFTISRDNAKNTGKLQMNRLKPEDTAVYYCAAKYYGEMYSWGQGTQVSVSS”, the “polyreactivity (PSR sort gate)” value was “low polyreactivity”.

For “QVQLVESGGGLVQARGSLRLSCAASGSIFHHYAMGWYRQAPGKDTELVAAISKSGGSTYYADSVKGRFTISRDNAKNTVYLQMNSLKPEDTAVYYCNAEVFWWDLWYDYWGQGTKVTVSS”, the “polyreactivity (PSR sort gate)” value is listed as “high polyreactivity”.

With “QVQLVESGGGLVQAGGSLRLSCAASGSIFRYNAMGWYRQAPGKERELVASISISDGSTYYADSVKGRFTISRDNAKNTVYLQMKSLKPEDTAVYYCAARTRDFYYPYDYWGQGTQVTVSS”, the “polyreactivity (PSR sort gate)” value is reported as “low polyreactivity”.

With “QVQLVESGGGLVQAGGSLRLSCAASGRIFYSNAMGWYRQAPGKERELVATISTGGSTYADSVKGRFTISRDNAKNTVYLQMNSLKPEETAVYYCAVDEWRWRVGAVAYYYWGQGTQVTVSS”, the “polyreactivity (PSR sort gate)” value is “low polyreactivity”.

Turning to “QVQLVESGGGLVQAGGSLRLSCAASVYTFYKYAMGWYRQAPGKERELVAAISSSGGSTYYADSVKGRFTISRDNAKNTVYLQMNSLKPEDTAVYYCAAYVYSNDYDYWGQGTQVTVSS”, the “polyreactivity (PSR sort gate)” value is given as “high polyreactivity”.

With “QVQLVESGGGLVQAGGSLRLSCAASGFTFRRYAKGWYRQATGKEREFVAAISIRGGRTNYADSVKGRFTISRDNAKNTVYLQMNSLKPEDTAVYYCAADGVYALDVESDYWGQGTQVTVSS”, the “polyreactivity (PSR sort gate)” value is “high polyreactivity”.

Turning to “QVQLVESGGGLVKAGGSLRLSCSASGSTFRSNAMGWYRQAPGKERELVAGISSGGGTYYADSVKGRFTISRDNAKNTVYLQMNSLKPEDTAVYYCAKVVYFGWSVQYYYWGQGTQVTVSS”, the “polyreactivity (PSR sort gate)” value is recorded as “low polyreactivity”.

For “QGQLEESGGGLVQAGGSLRLSCAASGFIIYDYDMGRYRQAPGKERELVAAITYSGGSTYYADSVKGRFTISRDNAKNTVYLQMNSLKPEDTAVYHCAAVKSRYAVAVDYYYWGQGTQVTVSS”, the “polyreactivity (PSR sort gate)” value is “low polyreactivity”.

With “QVQHVESGGGLVQAGGSLRLSCAASGRTFRGYAMGWYRQAPGKERELVASISASGVRTYYADSVKGRFTISRDNAKNTVYLQMNSLKPEDTAVYYCNARHGGWYSVYYYWGQGTQVTVSS”, the “polyreactivity (PSR sort gate)” value was “high polyreactivity”.

For the sequence “QVQLVESGGGLVQAGGSLRLSCAASGSIFGRYAMGWYRQAPGKERELVAAITYRGGTTYYADSVKGRFTISRDNAKNTVYLQMNSLKPEDTAVYYCAAEGTWYYKYGYFAYYYWGQGTQVTVSS”, the “polyreactivity (PSR sort gate)” value is “low polyreactivity”.

Consider “QVQLVESGGGLVQAGGSHRLSCAASGSIFVYNAMGCYIQAPGKERELVAGITFIGGSTYYADSVKGRFTISRDNAKNTVYLQMNSLKPEDTAVYYCNADVAPGIFYGYDSWGQGTQVTVSS”, for which the “polyreactivity (PSR sort gate)” value is “low polyreactivity”.

With “QVQLVESGGGLVQAGGSLRLSCAASGSIFRSYAMGWYRQAPGKERELVAAISRRGGSTYYADSVKGRFTISRDNAKNTVYLQMNSLKPEDTAVYYCAADRTGPYDYWGQGTQVTVSS”, the “polyreactivity (PSR sort gate)” value was “high polyreactivity”.

For “QDQLVESGGGLVQAGGSLRLSCAASGSIIDYYDMGWYRQAPGKEREFVAAINWSGGNTHYADSVKGRFTISRDNAKNTVYLQMNSLKPEDTAVYYCAVDVKIGTDFIGVVIPGDYWGQGTQVTVSS”, the “polyreactivity (PSR sort gate)” value is “low polyreactivity”.

For “QVQHVESGGGLVQAGGSLRLSCAASGLTFSSYAMGWYRQAPGKERELVAAISLSGGRTYYADSVKGRFTISRDNAKNTVYLQMNSLKPEDTAVYYCAADPYANWCPYPAWYYGAYNYWGQGTQVTVSS”, the “polyreactivity (PSR sort gate)” value is “high polyreactivity”.

Turning to “QVQLVESGGGLVQAGGSLRLSCASSGRTFYPYAMGWYRQAPGKERDLDAAITWSGGSTYYADSVKGRFTISRDYAKITVYLQMNSLKPEDTAVYYCNATYEAYIYYEYDYWGQGTQVTVSS”, the “polyreactivity (PSR sort gate)” value is “low polyreactivity”.

As to “QVQLVESGGGLVQAGGSLRLSCAASGRTFYGYAMGWSRQAPGKERELVAAISWTGGRTYYADSVKGRFTISRDNAKNTVFLQMNSLKPEDTAVYYCNARRRGDSGDGYIYGYWGQGTQVTVSS”, the “polyreactivity (PSR sort gate)” value is given as “high polyreactivity”.

Consider “QVQLVESGGGLVHAGGSLRLSCAPSGSTFDDYTMGWYRPAPGKERELVAAISSAGSTNYADSVKGRFTISRDNAKNTVYLQMNSLKPEDTAVYYCAAQVHPIRYDYWGQGTQVTVSS”, for which the “polyreactivity (PSR sort gate)” value is given as “low polyreactivity”.

Consider “QVQLVESGGGLVQAGGSLRLSCAASGRIFGVYAMGWSRQAPGKERELVATITSGGSTSYADSVKGRFTISRDNAINTVFLQMNSLKPEDTAVYYCNAPYSFFWQQMNYWGQGTQVTVSS”, for which the “polyreactivity (PSR sort gate)” value is “low polyreactivity”.

Turning to “QVQLVESGGGLVQAGGSLRLSCAASGRTFNWNALGWYRQAPGKERELVATISRRGGSTYYADSVKGRFTISRDNAKNTVYLQMNSLKREDTAVYYCITAGRYGYDYWGQGTQVTVSS”, the “polyreactivity (PSR sort gate)” value is reported as “high polyreactivity”.

The values are drawn from the nanobody polyreactivity screen of Harvey et al. (2022).
